# According to US20150344570A1 (published 2015):
# T1: FcγRIIa R (FcγRIIa allotype with Arg at position 131), extracellular domain with C-terminal His tag (human, UniProt P12318 34-217)
# T1 construct: extracellular domain; made in FreeStyle293 cells; analyte in the Biacore assay; also called FcγRIIa type R; 2aR
# T1 sequence (looked up): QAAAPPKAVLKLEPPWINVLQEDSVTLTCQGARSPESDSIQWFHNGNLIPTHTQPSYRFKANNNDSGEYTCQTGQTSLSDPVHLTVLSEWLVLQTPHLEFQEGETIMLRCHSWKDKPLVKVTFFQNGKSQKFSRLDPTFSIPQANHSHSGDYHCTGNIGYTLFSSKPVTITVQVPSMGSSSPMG
# T2: FcγRIIb, extracellular domain with C-terminal His tag (human, UniProt P31994 43-217)
# T2 construct: extracellular domain; made in FreeStyle293 cells; analyte in the Biacore assay; also called 2b; FcgRIIb
# T2 sequence (looked up): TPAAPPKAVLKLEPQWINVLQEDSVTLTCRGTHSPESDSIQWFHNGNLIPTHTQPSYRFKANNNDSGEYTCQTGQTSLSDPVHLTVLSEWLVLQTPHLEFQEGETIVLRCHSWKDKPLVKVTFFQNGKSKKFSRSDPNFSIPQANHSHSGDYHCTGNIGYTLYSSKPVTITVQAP
# T3: FcγRIIb extracellular domain with C-terminal His tag (human, UniProt P31994 43-217)
# T3 construct: extracellular domain; Soluble receptor expressed in FreeStyle293 cells and used as analyte in Biacore; also called FcgRIIb; 2b; not shown: His tag attached to the C terminus
# T3 sequence (looked up): T2 sequence (looked up)
# B1: GpH7-A5/GpH7-B3 variant L235_01G/GpL16-k0 (antibody, human IgG1, kappa)
# heavy 1: not shown
# heavy 2: not shown
# light: DIVMTQSPLSLPVTPGEPASISCQASESLVHSNRNTYLHWYLQKPGQSPQLLIYKVSNRFSGVPDRFSGSGSGTDFTLKISRVEAEDVGVYYCSQNTHVPPTFGQGTKVEIERTVAAPSVFIFPPSDEQLKSGTASVVCLLNNFYPREAKVQWKVDNALQSGNSQESVTEQDSKDSTYSLSSTLTLSKADYEKHKVYACEVTHQGLSSPVTKSFNRGEC
# notes: heterodimerized IgG1, mutation in one H chain only; also called He Ab
# B2: GpH7-A5/GpH7-B3 variant D270_01G/GpL16-k0 (antibody, human IgG1, kappa)
# heavy 1: not shown
# heavy 2: not shown
# light: B1 light
# notes: Heterodimerized anti-glypican-3 IgG1 with the alteration in only one H chain; also called He Ab
# B3: GpH7-A5/GpH7-B3 variant D270_12R/GpL16-k0 (antibody, human IgG1, kappa)
# heavy 1: not shown
# heavy 2: not shown
# light: B1 light
# notes: as for B2
# B4: GpH7-A5/GpH7-B3 variant D270_06M/GpL16-k0 (antibody, human IgG1, kappa)
# heavy 1: not shown
# heavy 2: not shown
# light: B1 light
# notes: as for B2
# B5: GpH7-A5/GpH7-B3 variant D270_07I/GpL16-k0 (antibody, human IgG1, kappa)
# heavy 1: not shown
# heavy 2: not shown
# light: B1 light
# notes: as for B2
# B6: GpH7-A5/GpH7-B3 variant L235_16H/GpL16-k0 (antibody, human IgG1, kappa)
# heavy 1: not shown
# heavy 2: not shown
# light: B1 light
# notes: as for B1
# B7: GpH7-A5/GpH7-B3 variant L235_18N/GpL16-k0 (antibody, human IgG1, kappa)
# heavy 1: not shown
# heavy 2: not shown
# light: B1 light
# notes: as for B1
# B8: GpH7-A5/GpH7-B3 variant D270_15Y/GpL16-k0 (antibody, human IgG1, kappa)
# heavy 1: not shown
# heavy 2: not shown
# light: B1 light
# notes: as for B2
# B9: GpH7-A5/GpH7-B3 variant D270_10E/GpL16-k0 (antibody, human IgG1, kappa)
# heavy 1: not shown
# heavy 2: not shown
# light: B1 light
# notes: as for B2
# B10: GpH7-A5/GpH7-B3 variant D270_03V/GpL16-k0 (antibody, human IgG1, kappa)
# heavy 1: not shown
# heavy 2: not shown
# light: B1 light
# notes: as for B2
# B11: GpH7-A5/GpH7-B3 variant D270_13S/GpL16-k0 (antibody, human IgG1, kappa)
# heavy 1: not shown
# heavy 2: not shown
# light: B1 light
# notes: as for B2
# B12: GpH7-A5/GpH7-B3 variant D270_08L/GpL16-k0 (antibody, human IgG1, kappa)
# heavy 1: not shown
# heavy 2: not shown
# light: B1 light
# notes: as for B2
# B13: GpH7-A5/GpH7-B3 variant L235_13S/GpL16-k0 (antibody, human IgG1, kappa)
# heavy 1: not shown
# heavy 2: not shown
# light: B1 light
# notes: as for B1
# B14: GpH7-A5/GpH7-B3 variant L235_14T/GpL16-k0 (antibody, human IgG1, kappa)
# heavy 1: not shown
# heavy 2: not shown
# light: B1 light
# notes: as for B1
# B15: GpH7-A5/GpH7-B3 variant L235_19Q/GpL16-k0 (antibody, human IgG1, kappa)
# heavy 1: not shown
# heavy 2: not shown
# light: B1 light
# notes: as for B1
# B16: GpH7-A5/GpH7-B3 variant D270_11K/GpL16-k0 (antibody, human IgG1, kappa)
# heavy 1: not shown
# heavy 2: not shown
# light: B1 light
# notes: as for B2
# B17: GpH7-A5/GpH7-B3 variant L235_11K/GpL16-k0 (antibody, human IgG1, kappa)
# heavy 1: not shown
# heavy 2: not shown
# light: B1 light
# notes: as for B1
# Tests used:
# [1] = biological target: T1, FcγRIIa R (FcγRIIa allotype with Arg at …); assay: SPR (Biacore); He/Con_2aR divided by He/Con_2b, binding to FcγRIIa R against binding to FcγRIIb
# Experimental: (§1) The heterodimerized antibodies He Abs in which one of the H chains was introduced with an alteration were assayed for their binding activities to each activating FcγR and inhibitory FcγR according to the method described in Example 4. […] The activating FcγRs in FIGS. 26, 27, 28, and 29 are FcγRIa, FcγRIIa (R), FcγRIIa (H), and FcγRIIIa, respectively.
# (§2) Analysis of interaction between objective antibody and the FcγR was carried out using Biacore T100 (GE Healthcare). HBS-EP+ (GE Healthcare) was used as the running buffer, and the measurement temperature was set to 25° C. Chips produced by immobilizing the antigen peptide by the amine coupling method to a Series S Sencor Chip CM5 (GE Healthcare), or alternatively, chips produced by allowing preliminarily biotinylated antigen peptides to interact with and immobilize onto a Series S Sensor Chip SA (certified) (GE Healthcare) were used. Antibodies of interest were captured onto an antigen peptide-immobilized chip, and allowed to interact to each FcγR diluted with running buffer. To regenerate and repeatedly use the chip, the antibodies captured on the chip were washed off by reacting 10 mM glycine-HCl, pH 1.5.
# [2] = biological target: T1, FcγRIIa R (FcγRIIa allotype with Arg at …); assay: SPR (Biacore), antibody captured, FcγR analyte; vs GpH7-A5/GpH7-B3/GpL16-k0 = 100
# [3] = biological target: T2, FcγRIIb, extracellular domain with …; assay: as above
# [4] = biological target: T4, FcγRIIIa extracellular domain with C-terminal His tag (human, UniProt P08637 17-208); assay: SPR (Biacore); He/Con_3a divided by He/Con_2b (FcγRIIIa over FcγRIIb)
# T4 construct: extracellular domain; also called FcgRIIIa; 3a; not shown: His tag attached to the C terminus
# Experimental: as §1, §2
# [5] = biological target: T4, FcγRIIIa extracellular domain with …; assay: SPR (Biacore), antibody captured, FcγR as analyte; binding activity relative to control heterodimerized antibody
# Experimental: as §1, §2
# [6] = biological target: T3, FcγRIIb extracellular domain with …; assay: as above
# Experimental: as §1, §2
# T4 sequence (P08637 17-208): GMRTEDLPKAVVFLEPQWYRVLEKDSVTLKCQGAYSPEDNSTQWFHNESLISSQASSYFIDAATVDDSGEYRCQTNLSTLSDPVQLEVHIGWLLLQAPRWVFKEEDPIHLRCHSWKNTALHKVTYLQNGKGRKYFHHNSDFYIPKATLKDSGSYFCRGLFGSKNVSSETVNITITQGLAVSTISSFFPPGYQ
He_2aR/2b (IIaR/IIb) [1],He/Con_2aR [2],He/Con_2b [3],He_3a/2b [4],He/Con_3a [5],He/Con_2b [6],Binder
1.37 ratio,48.5 relative (HeCon Ab = 100),35.4 relative (HeCon Ab = 100),–,–,–,B1
–,–,–,1.26 ratio,38.5 % of GpH7-A5/GpH7-B3/GpL16-k0 (=100),30.5 % of GpH7-A5/GpH7-B3/GpL16-k0 (=100),B2
–,–,–,1.58 ratio,28.8 % of GpH7-A5/GpH7-B3/GpL16-k0 (=100),18.3 % of GpH7-A5/GpH7-B3/GpL16-k0 (=100),B3
–,–,–,1.38 ratio,66.3 % of GpH7-A5/GpH7-B3/GpL16-k0 (=100),48.2 % of GpH7-A5/GpH7-B3/GpL16-k0 (=100),B4
–,–,–,1.68 ratio,69.6 % of GpH7-A5/GpH7-B3/GpL16-k0 (=100),41.5 % of GpH7-A5/GpH7-B3/GpL16-k0 (=100),B5
1.23 ratio,94.8 relative (HeCon Ab = 100),76.9 relative (HeCon Ab = 100),–,–,–,B6
1.21 ratio,66.5 relative (HeCon Ab = 100),54.9 relative (HeCon Ab = 100),–,–,–,B7
–,–,–,1.22 ratio,54.5 % of GpH7-A5/GpH7-B3/GpL16-k0 (=100),44.9 % of GpH7-A5/GpH7-B3/GpL16-k0 (=100),B8
–,–,–,1.61 ratio,123 % of GpH7-A5/GpH7-B3/GpL16-k0 (=100),76.5 % of GpH7-A5/GpH7-B3/GpL16-k0 (=100),B9
–,–,–,1.52 ratio,60.3 % of GpH7-A5/GpH7-B3/GpL16-k0 (=100),39.5 % of GpH7-A5/GpH7-B3/GpL16-k0 (=100),B10
–,–,–,1.28 ratio,56.7 % of GpH7-A5/GpH7-B3/GpL16-k0 (=100),44.2 % of GpH7-A5/GpH7-B3/GpL16-k0 (=100),B11
–,–,–,1.34 ratio,71.8 % of GpH7-A5/GpH7-B3/GpL16-k0 (=100),53.6 % of GpH7-A5/GpH7-B3/GpL16-k0 (=100),B12
1.36 ratio,65.3 relative (HeCon Ab = 100),48.2 relative (HeCon Ab = 100),–,–,–,B13
1.3 ratio,60.7 relative (HeCon Ab = 100),46.8 relative (HeCon Ab = 100),–,–,–,B14
1.32 ratio,56.2 relative (HeCon Ab = 100),42.6 relative (HeCon Ab = 100),–,–,–,B15
–,–,–,2.02 ratio,41 % of GpH7-A5/GpH7-B3/GpL16-k0 (=100),20.3 % of GpH7-A5/GpH7-B3/GpL16-k0 (=100),B16
1.72 ratio,10.8 relative (HeCon Ab = 100),6.3 relative (HeCon Ab = 100),–,–,–,B17
